# In the nanobody polyreactivity screen of Harvey et al. (2022):
# Assay: yeast display, Sf9 membrane polyspecificity reagent, FACS + sequencing; frameworks hold sequencing errors
# Summary of the method: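 A synthetic nanobody library was expressed on Saccharomyces cerevisiae BJ5465 by galactose induction for 36–48 hours. The library was stained for 1 hour at 4 °C with 10% biotinylated, detergent-solubilized Sf9 membrane reagent and enriched with streptavidin microbeads before FACS. Low and high (top ~1%) gates were set on anti-HA fluorescence for expression and streptavidin fluorescence for reagent binding, and each polyreactivity label reflects the gate of origin.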
row,Sequence,polyreactivity (PSR sort gate)
1,QVQLVESGGGLVQAGGSLRLSCAASGSIFPAYTMGRYRQAPGKEREMVAAIPYSGARSTYYADSVKGRFTISRDNAKNTVYLQMYSLKPEDTAVYYCNARSRARYFYDMDYWGQGTLVTVSS,low polyreactivity
2,QVQLVESGGGLVQAGGSLRLSCAASGGTFGSNAMGWYRQAPGKERELLAAITSRGGSTSYADSVKGRFTISRDYAKNTVYLQMKSLKPEDTAVYYCASVRYYWRPYVVNFDYWGQGTQVTVSS,high polyreactivity
3,QVQLLESGGGLVQAGGSLRLSCAASGSTFDDYAMGWYRQAPGKEREFVAAIDWSGGSTYYADSVKGRFTISRDNAKYSVYLQMKSLKPEVTAVYYCNADPDVSFDYWGQGTQVTVSS,low polyreactivity
4,QVLVGESGGGLVQAGGSLRLSCAASGSTFSNYAMGWYRQAPGTERELVAVSTRGASTYYADSVKGRFTISRDNAKNTVYLQMNTLKPEDTAVYYCAASYWRYRVVHSPYRYYYWGQGTQVNVSS,high polyreactivity
5,QVQLVESGGGLVQAGGSLRLSCAASGITFSRNAMGWYRQAPGKERELVATITSGGSTNYADSVKGRFTISRDNAKNTVYLQMNSLKPEDTAGYYCNAVWNTFISGRSYDYWGQGTQVTVSS,low polyreactivity
6,QVQLVESGGGLVQAGGSLRLSCAASGSTFRVYAMGWYRQAPGKERELVAAITRSGGRTHYADSVKGRFTISRDNAKNTVYLQMNSLKPEDTAVYYCAARFYYTKPEDYYWGQGTQVTVSS,high polyreactivity
7,QVQLVESGGGLVQAGGSLRLSCAASGSIFYGNAMGWYRQAPGKERELVAGISWSGGSTYYADSVKGRFTISRDNAKYTVYLQMNSLKPEDTAVYYCATVADEPRAYSGYEESDYWGQGTQVTVSS,low polyreactivity
8,QVQLEESGGGLVQAGGSLRLSCAASGSIFVPYAMGWYRQAPGKERELVASISWRGGSTYYADSVKGRFTISRDNAKNTVYLQMNSLKPEDTAVYYCAAQKRGSPGYRRDYWGQGTQVTVSS,high polyreactivity
9,QVQLVESGGGLVQAGGSLRLSCAASGSIFGNYAMGWYRQAPGKERELVAAITSSGGTYYADSVKGRFTISRDNAKNTVYLQMNSLKPEDTAVYYCAARYYSYRHQSVKYGYWGQGTQVTVSS,high polyreactivity
10,QVQVVESGGGLVKAGGSLSLSCDASGITFVAYAMGWYRQAPGKERELVAAISYNGGSTNYADSVKGRFTISRDNAMNTVYLQINSLKPEDTAVFYCAADLADFYPRFNYWGQGTQVTVSS,low polyreactivity
11,QVQLVESGGGLVQAGGSLRLSCAASGRIFNPYAMGWYRQAPGKERELVAAISRGGRTYYADSVKGRFTISRDNAKNTVYLQMNSLKPEDTAVYYCNAGRGLREDDYWGQGTQVTVSS,low polyreactivity
12,QVQLVESGGGLVQAGGSLRLSCAASGRISGINVMGWYRQAPGKERELVAAISRSGARTYYADSVKGRFTISRDNAKNTVYLQMNSLKPEDTAVYYCNAANLKYPKYVQGDYWGQGTQVTVSS,high polyreactivity
13,QVQHVESVVGFVQAGASLRLSCASSVLILAQNTMGWYRQAPGKERELVAAISWRGGNTYYADSVKGRLTISRDNAKNTVYLKMNILKPEDTAVDYCAARRPRRIVDYDYWGQGTQVTVSS,high polyreactivity
14,QVQLVESAAGLVQAGGSLRLSCAASGRIFGSYVMGWYRQAPGKERELVAAISASGGSTYYADSVKGRFTISRDNAKNTVYLQMNSLKPEDTAVYYCAATSIYTWWDLLDYWGQGTQVTVSS,high polyreactivity
15,QVQLVESGGGLVQAGGSLRLSCAASGFTFSFYAMGWYRQAPGKERELVAAITNGGSTYYADSVKGRFTISRDNAKNTVYLQMNSLKPEDTAVYYCAAEWDYPWWRIVAVYGYEYWGQGTQVTVSS,low polyreactivity
16,QVQLQESGGGLVQAGGSLLSCAASGTISYYREMGWSRQSPGKQRELVAGIGVGTITYYADSVKGRFTISRDNAKKTVFLQMNSLNPEDTAVYYCAAHIDGNDSHAYWGQGTQVTVSS,low polyreactivity
17,QVQLVESGGGLVQAGGSLRLSCAASGLSLQYYAMGWYSQAPGKDRELVAAISSRGVSTYYADSVKGRFTISRDNAKNTVYLQMNSLKPEETAVDYCNARQWRFGFVARGGKYNYWGQGTQVTVSS,high polyreactivity
18,QVQLVESVGGLVQAGGSLRLSCAASGRTFRKYAMGWYRQAQGKERELVASITYSGGSTYYADSVKGRFTISRDNAKNTVYLQMNSLKPEDTAVYYCAARLHWIRYPQTLYDYWGQGTQVTVSS,high polyreactivity
19,QVQLVESGGGLVQAAGSLRLSCAASGSIFTYYAKGCYRQATRKERELVATINRIGGNTYDADSVKGRFTLSSDNAKNTVYLQMNRLKPEDNAVYYCAAKPTYRGYGYGSWGQGTQVTVSS,low polyreactivity
20,QVQLVESGGGLVQAGGSLRLSCAASGIIFRGYVMGWYRQAPGKERELVADISRGGSTYYADSVKGRFTISRDNAKNTVYLQMNSLKPEDTAVYYCATAGPLWFYWGYDYWGQGTQVTVSS,low polyreactivity
21,QVQLVESGGGLVQAGGSLRLSCAASGSIFLDNAMGWYRQAPGKEREFVATISWRTGRTYYADSVKGRFTISRDNAKNTVYLHMNSLKPEDTAVYYCAVDTVRNHRMDYWGQGTQVTVSS,low polyreactivity
22,QVQLVESGGGLVQAGGSLRLSCAVRRTLSFYAMGWYRQAPGKERELVATISRSGGSTYYADSVKGRFTISRDNAKNTVYLQMNSLKPEDTAVYYCAVRWKAHYWGPIYYYWGQGTQVTVSS,high polyreactivity

row,Sequence,polyreactivity (PSR sort gate)
1,QVQLVESGGGLVQAGGSLRLSCAASGGIFPYYVMGWYRQAPGNEMELVAAINSGGTTYYADSVKGRFTISRDNAKNTVYLQMNILKPEDTAVYYCAAYYAGFGYNYWGQGTQVTVSS,low polyreactivity
2,QVQLVESGGGLVLAGGSLRLSCAASGSTFTRNAMGWYRQAPGKERELVATISSGGSTNYADSVKGRFTISRDNAKNTVYLQMNSLKPEDTAVYYCAKRSLYRYYYWGQGPQVTVSS,high polyreactivity
3,QVQLVESGGGLVQAGGSLRLSCAASGYTFDSYTMGWYRQAPGKERELFAAITRSGSSTYYADSVKGRFTISRDNAKNTVYLLMNSLKPEDTAVYYCAAGWRRAAGIQYWYGYWGQGTQVTVSS,high polyreactivity
4,QVQLVESGGGLVQAGGSLRLSCAASGFIFYDYDMGWYRQAPGKERELVAAITYSGGSTYYADSVKGRFTISRDNAKNTVYLQMNSLKPEDTAVYYCAAVKSRYAEAVDYYYWGLGTQVTVSS,low polyreactivity
5,QVQLVESGGGLVQEGGSLRLSCAASGSIFYRYTMGWYRPAPGKERELVAAISSRGGSTYYADSVKGRFTISRDNAKNTVYLQMNCLKPEDTAVYYCAARYYRNPVFVIMDYWGQGTQVTVSS,high polyreactivity
6,QVQLVESGGGLVQAGGSLRLSCAASGRIFGAYALGWYRQAPGKERELVAAINSGGSTFYAHSVKGRFTISRDNAKNTVYLQLNSLKPDDTAVYYCAKRSYDYRRYYWGQGTQVTVSS,high polyreactivity
7,QVQLVESGGGLVQAGGSLRLSCAASGITFYHYAMGWYRQAPGKERELVAAISSDDNTNYADSVKGRFTISRDNAKNTVYLQMNSLKPEDTAVYYCAAAPWYFYDQYFNAISFGYYYWGQGTQVTVSS,high polyreactivity
8,QVQLVESGGGLVQAGGSLRLSCAPSGSTLFYNAMGCYRQSPGKETELVATISGGGVSTYYADSVNGRFRISRDNAKNSVYLQMYSLKPEDTAVYYCAAAGWSEGGYDYWGQGTQVTVSS,low polyreactivity
9,QVQLVESGGGLVQAGGSLRLSCAASGRTFRGYAMGWYRQAPGKERELVAAINFSAGITYYADSVKGRFTISRDNAKNTVYLQMNSLKPEDTAVYYCAAEPEWWWRGYGYWGQGTLVTVSS,low polyreactivity
10,QVQLVESGGGLVQAGGSLRLSCAASGFTFRYYTMGWYRQAPGKERELVAAINRSGSTNYADSVKGRFTISRDNAKNTVYLQMNSLKPEDTAVYYCAAAYYGSHGRYDYWGQGTQVTVSS,high polyreactivity
11,QVQLVESGGGLVQAGGSLRLSCAASASIVFTYVMGCYSQAPWKERELVSAITSDDNTNYADSVKGRFTISRVNAKNTVYLQMNSLKPEDTAVYYCNADTTLYPYYEYGYYDYDYWGHGTQVTVSS,low polyreactivity
12,QVQLVESGGGLVQAGGSLRISCAASGLIFAIYAMGWYRQAPGKERELVAAIRWSGASTYADSVKGRFTISRDNAKNTVYLQMNSLKAEDTAVYYCAADDLLDYDNWGQGTQVTVSS,low polyreactivity
13,QVQLLESGGGLVQAGGSLRLSCAATGRIFAPYTMGWYRQAPGTEMEMFAVISKRGGNTYYADSVKGRFTISRDNAKNTVYLQMNSLKPEATAVYFCNADWQFRVYLGGPGTHGYDYWGQGTQVTVSS,low polyreactivity
14,QVQLVESGGGLVQAGGSLRLSCAASGSIFPGYAMGWYRQAPGKERELVATISTRGSTYYADSVKGRFTISRDNAKNTVYLQMNSLKPEDTAVYYCNTDFPTAQYDYWGQGTQVTVSS,low polyreactivity
15,QVQLVESGGGLVQAGGSLRLSCAASGSTFTLNAMGWSRQAPGKERELVADITSGGGGTYYADSVKGRFTISRDNAKNTVYLQMNSLKPEDTAVYYCAKTYRPSYNPYISFGFDYWGQGTQVTVSS,low polyreactivity
16,QVQLVESGGGLVQAGGSLRLSCAASGRIFPYNVMGWYRPATGKERELVAAISWSGGRTYYADSVKGRFTISRDNAKNTVYLQMISLKPEDTAVYYCNTRTLVAMGYWGQGTQVTVSS,high polyreactivity
17,QVQLVESGGGLVQAGGSLRLSCAASGSTFYGYAMGWYRPAPGKERELVAAITRSGGSTYYADSVKGRFTISRDNAKNTVYLQMNSLKPEDTEVYYCNKYGYKGGVGYDYWGQGTQVTVSS,high polyreactivity
18,QVQLVESGGGLVQAGGSLRLSCAASGRTFQVNAMGWYRQAPGKERELVAGITQRAGSTYYADSVKGRFTISRDNAKNTVYLQMNSLKPEDTAVYYCAAQDVHLWYENYYWGQGTQVTVSS,low polyreactivity
19,QVQLVESGGGLVQAGGSLRLSCAASGSTFYPNSMGWYRQAPGKERELVDAISWSGGYTYYADSVKGRFTISRDNAKNTVFLQMNSLNPEDTAVYYCAAREFLYSWYTHLKYDYWGQGTQVTVSS,low polyreactivity
20,QVQLVESGGGLVQAGGSLRLSCAASGSIFWLYAMGWYRQAPGKEREFVAAITTSGSSTRYADSVKGRFTISRDNAKNTVYLQMNSLKPEDTAVYYCAARNRTFFQPTYYYWGQGTQVTVSS,high polyreactivity
21,QVQLVESGGGLVQAGGSLRLSCAASGSIFDVNAMGWYRPAPGKERELVAAISDSGGSTYYADSVKGRFTISRDTAKNTVYLQMNSLKPEDTAVYYCNADWSWYNYYDFDYWGQGTQVTVSS,low polyreactivity
